Measured values as given in the nanobody polyreactivity screen of Harvey et al. (2022).

Experiment: yeast display, Sf9 membrane polyspecificity reagent, FACS + sequencing; frameworks hold sequencing errors
Procedure, shortened: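 Nanobodies from a synthetic yeast display library (Saccharomyces cerevisiae BJ5465), induced 36–48 hours with galactose, were stained 1 hour at 4 °C with 10% biotinylated, detergent-solubilized Sf9 membrane reagent, enriched on streptavidin microbeads, then FACS-sorted. Anti-HA (expression) and streptavidin (reagent binding) fluorescence set low and high (top ~1%) gates. Polyreactivity labels come from the gate of origin. Genes were colony-PCR amplified, MiSeq 2 × 250 sequenced and filtered by CDR length.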

Sequence | polyreactivity (PSR sort gate)
QVQLVESGGGLVQAGGSLRLSCAASGRTFGRYAMGWSRQAPGKERELVAAIRYTGGSTYADSVKGRFTISRDNAKNTVYLQMNSLKPEDTAVYYCAVLFYNNFGYWGQGTQVTVSS | low polyreactivity
QVQLVESGGGLVQAGGSLRLSCAASGRTFGRYAMGWYRPAPGKERELVAAIRWTGGGTYYADSVKGRFTISRDNAKNTVYLQMNSLKPEDTAVYYCAADDYYYSVYRYEYWGEGTQVTVSS | high polyreactivity
QVQLVESGGGLVQAGGSLRLSCAASGRTFGRYAMGWYRQAPGKERELVAAINSGSASTYYADSVKGRFTISRDNAKNTVYLEMNSLKPEDPAVYYCAKRVQQSTWYGYGIGYEYWGQGTQVTVSS | high polyreactivity
QVQLVESGGGLVQAGGSLRLSCAASGRTFGRYAMGWYRQAPGKERELVAAISSSGGRTNYADSVKGRFTISRDNAKNTVYLQMNSLKPEDTAVYYCAAAGQRPYEKGDYWGQGTQVTVSS | low polyreactivity
QVQLVESGGGLVQAGGSLRLSCAASGRTFGRYAMGWYRQAPGKERELVAAISWRGSSTSYADSVKGRFTISRDNAKNTVYLQMNSLKPEDTSVYYCNAKRSGGYGGYDYWGQGTQVTVSS | high polyreactivity
QVQLVESGGGLVQAGGSLRLSCAASGRTFGRYAMGWYRQAPGKERELVAAITRGGGSTYYADSVKGRFTISRDNAKNTVYLQMNSLKPEDTAVYYCAARNFRSPYGYDYWGQGTQVTVSS | high polyreactivity
QVQLVESGGGLVQAGGSLRLSCAASGRTFGRYAMGWYRQAPGKERELVATISSRGGNTYYADSVKGRFTISRDNAKNTVFLQMNSLKPEDTAVYYCAADVYSSDYDYWGQGTQVNVSS | high polyreactivity
QVQLVESGGGLVQAGGSLRLSCAASGRTFGRYAMGWYRQAPGKERELVATISSRGGNTYYADSVKGRFTISRDNAKNTVYLQMNSLKPEDTAVYYCAAQTYKWYDWGQGTQVTVSS | high polyreactivity
QVQLVESGGGLVQAGGSLRLSCAASGRTFGRYAMGWYRQAPGKERELVATITRGDSTYYADSVKGRFTISRDNAKNKVYLQMNSLKPEDTAVYYCAADWHRWYLDYDYWGQGTQVTVSS | low polyreactivity
QVQLVESGGGLVQAGGSLRLSCAASGRTFGRYVMGWYRQAPGKERDLVAAITGVGSTKYADSVKGRFTISRDNAKNTVYLQMNSLKPEDTAVYYCAKRYLYDRRHAEYWAANDYWGQGTQVTVSS | low polyreactivity
QVQLVESGGGLVQAGGSLRLSCAASGRTFGSNAMGRYRQAPGKDRELVAAISVRGGRTYYADSVKGRFTISRDIAKNTGYLQMNSLKPEDTAVYYCNAVYRTYEYYWGQGTQVTVSS | high polyreactivity
QVQLVESGGGLVQAGGSLRLSCAASGRTFGSYAMGWYRQAPGKERELVAAIRYRGGSTYYADSVKGRFTISRDNAKNTVYLQMNSLKPEDTAVYYCAAKQGRYNIYSNYDYWGQGTQVTVSS | high polyreactivity
QVQLVESGGGLVQAGGSLRLSCAASGRTFGTNAMGRYRKAPGKERELVAAITWRGGSTSYADSEKGRFTISRDNAKNSVYFQMNSLKPEDPAVYYCAVRLRYPGNTFYYLGQGTQVTVSS | high polyreactivity
QVQLVESGGGLVQAGGSLRLSCAASGRTFGTNTKGWSRQAPGKERELVAAISSRGGTTYYADSVKGRFTISRDNAKNTVYLQMYSLKPEDTAVYYCNRARSSSRYDYWGQGTQVTVSS | low polyreactivity
QVQLVESGGGLVQAGGSLRLSCAASGRTFGTYAIGWYRQAPGKERELVAAITGSGDRTYYADSVKGRFTISRDNAKNTVYLQMNSLKPEDTAVYYCAAYSDRSYGFWGQGTQVTVSS | low polyreactivity
QVQLVESGGGLVQAGGSLRLSCAASGRTFGTYAMGWYRQAPGKERELVAAIRSNAGSTYYADSVKGRFTISRDNAKNTVYLQMNSLKPEDTAVYYCAKSYRSSRRYNYWGQGTQVTVSS | high polyreactivity
QVQLVESGGGLVQAGGSLRLSCAASGRTFGTYAMGWYRQAPGKERELVAAITGSGDRTYYADSVKGRFTISRDNAKNTVYLQMNSLKPEDTAVYYCAAYSDRSYGYWGQGTQVTVSS | low polyreactivity
QVQLVESGGGLVQAGGSLRLSCAASGRTFGTYAMGWYRQAPGKERELVASITSGDSTNYADSVKGRFTISRDYAKNTVYLQMNSLKPEDTAVYYCNARGDVIVTPPKFSFNYEYWGQGTQVTVSS | low polyreactivity
QVQLVESGGGLVQAGGSLRLSCAASGRTFGVYAMGWYRQAPGKERELVAAITWSGGSTYYADSVKGRFTISRDNAKNTVYLQMNSLKPEDTAVYYCAADNWYKKQKRPSAYDYWGQGTQVTVSS | high polyreactivity
QVQLVESGGGLVQAGGSLRLSCAASGRTFGVYAMGWYRQAPGKERELVARIRYSGGTTRYADSVKGRFTISRDNAKNTVYLQMNSLKPEDTAVYYCAATNWWGTEYDYWGQGTQVTVSS | high polyreactivity
QVQLVESGGGLVQAGGSLRLSCAASGRTFGVYAMGWYRQAPGKERELVATITSVDRTNYADSVKGRFTISRDNAKNTVYLQMNSLKPEDTAVYYCAAVGRWPRYYYWGQGTQVTVSS | high polyreactivity
QVQLVESGGGLVQAGGSLRLSCAASGRTFGVYAMGWYRQATGKERELVAGIRWRGGSTYYADSVKGRFTISRDNAKNTVYLQMNSLKPEDTAVYYCAAKVYYLYDSIWAWVIIRYDYWGQGTQVTVSS | low polyreactivity

Sequence | polyreactivity (PSR sort gate)
QVQLVESGGGLVQAGGSLRLSCAASGRTFGWYAMGWYRQAPGKERELVAAINNSGDITYYADSVKGRFTISRDNAKNTVYLQMNRLKPEDTAVYYCAKDNGRAYFGPSPYDYWGQGTQVTVSS | low polyreactivity
QVQLVESGGGLVQAGGSLRLSCAASGRTFGYNAMGWYRQAPGKERELVAAIRYSGGSTYYADSVKGRFTISRDNAKNTVYLQMNSLKPEDTAVYYCAAYCLFSSYGYDYWGQGTQVTVSS | high polyreactivity
QVQLVESGGGLVQAGGSLRLSCAASGRTFGYNAMGWYRQAPGKVRELVAAITSGGSTYYADSVKGRFTISRDNAKNTVYLQMNSLKPEDTAVYYCNARYPGFWSGWEEYWGQGTQVTVSS | high polyreactivity
QVQLVESGGGLVQAGGSLRLSCAASGRTFGYNAMGWYSQAPGKERELVAAISWSGGRTYYADSVKGRFTISRDNAKNTVYLQMNSLKPEDTAVYYCAALPSVTNRYYIYGYWGQGTQVTGSS | high polyreactivity
QVQLVESGGGLVQAGGSLRLSCAASGRTFGYYAMGWYRQAAGKDREFVAAITAGRGSTYYPDSVKGRFTISRDNAKNTVYLQMNSLKPEETAVYYCNAVPPGRTPVKGNFYYWGQGTQVTVSS | high polyreactivity
QVQLVESGGGLVQAGGSLRLSCAASGRTFGYYAMGWYRQAPGKERELVAAISRSGGSTYYADSVKGRFTISGDNAKNTVYLQMNSLKPEDTAVYYCAVKGYVKSDYWGQGTQVTVSS | high polyreactivity
QVQLVESGGGLVQAGGSLRLSCAASGRTFGYYAMGWYRQAPGKERELVAAISSAGSSTYYADSVKGRFTISRDNAKNTVYLQMNSLKPEDTAVYYCAASSRSFIRVYYWGQGTQVTVSS | high polyreactivity
QVQLVESGGGLVQAGGSLRLSCAASGRTFGYYAMGWYRQAPGKERELVAAISTSGGGTYYADSVKGRFTISRDNAKYTVYLQMNSLKPVDTAVYYCARDRNTRYKFDYWGQGTQVTLSS | low polyreactivity
QVQLVESGGGLVQAGGSLRLSCAASGRTFGYYAMGWYRQAPGKERELVAAISWRGTSTYYADSVKGRFTISRDNAKNTVYLQMNSLKPEDTAVYYCAVGRTVAHRFIAGDYWGQGTQVTVSS | high polyreactivity
QVQLVESGGGLVQAGGSLRLSCAASGRTFGYYAMGWYRQAPGKERELVAAISWSGGSTRYADSVKGRFTISRDNAKNTVYFQLNSLKPEDTAVYYCAADSWYSFAGVYRVYGEDYWGQGTQVTVSS | high polyreactivity
QVQLVESGGGLVQAGGSLRLSCAASGRTFGYYGMGWYRQAPGKERELVAAITGSGGSTYYADSVKGRFTISRDNAKNTVYLQMNSLKPEDTAVYYCAATYLSRWTLYDYWGQGTQVTVSS | high polyreactivity
QVQLVESGGGLVQAGGSLRLSCAASGRTFGYYRMGWYRQAPGKERELVAAITGSGGSTYYADSVKGRFTISRDNAKNTVYLQMNSLKAEDTAVYYCAATYLSRWTLYDYWGQGTQVTVSS | high polyreactivity
QVQLVESGGGLVQAGGSLRLSCAASGRTFHDNGMGGYRQAPGKERELVAAISWRGGSTNYADSVKGRFTISRDNAKNTVYLQMNSLKPEETAVYFCNRVPRKFGKLDYWGQGTQVTVSS | low polyreactivity
QVQLVESGGGLVQAGGSLRLSCAASGRTFHGYAMGWYRQAPGKERELVARINWSDGRTYYADSVKGRFTISRDNAKNTVFLQMNSLKPEDTAVYYCAADKTVSYAPAWYYYWGQGTQVTVSS | low polyreactivity
QVQLVESGGGLVQAGGSLRLSCAASGRTFHGYAMGWYRQAPGNEREFVAAISSDGDSTYYADSVKGRFTISRDNAKNTVYLQMNSLKPEDTAVYYCAAERGYHGGGSGLYDYWGQGTQVTVSS | low polyreactivity
QVQLVESGGGLVQAGGSLRLSCAASGRTFHINAMGWYRQAPGKERELVAGINSGGSTNYADSVKGRFTISRDNAKNTVYLQMNSLKPEDTAVYYCNAVVKLKYLYYYVEHYYWGQGTQVTVSS | low polyreactivity
QVQLVESGGGLVQAGGSLRLSCAASGRTFHKYAMGWLRQAPGKERELVAAITGSGVRTYYADSVKGRFTISRDNAKNTVYLQMNSLKPEDTAVYYCNADSYNRNGDYWGQGTQVTVSS | high polyreactivity
QVQLVESGGGLVQAGGSLRLSCAASGRTFHPYAMGWYRQAPGKERELVAVITTSGSSTYYADSVKGRFTISRDNAKNTVYLQMNSLKPEDTAVYYCAALYWRHQAARYYYWGQGTQVTVSS | high polyreactivity
QVQLVESGGGLVQAGGSLRLSCAASGRTFHQYAKGWYRQAPGKERELVAAISRSGGRTYYADSVKGRFTISRDNAKNTVYLQMNSLIPEDSAVYYCNRDIGGTSVLDDYWGQGTQVTVSS | low polyreactivity
QVQLVESGGGLVQAGGSLRLSCAASGRTFHRNAMGWYRQAPGKERELVAAITGDGRTNYADSVKGRFTITRDNAKNTVSLQMNSLKPEDTAVYYCFSYDYDYWGQGTQVTVSS | low polyreactivity
QVQLVESGGGLVQAGGSLRLSCAASGRTFHRYAMGWYRQAPGKERELVAAITYRGGRTYYADSVKGRFTISRDNANNTVYLQMNSLKPEDTAVYYCNTTQYSPIHDPGDYWGQGTQVTVSS | low polyreactivity
